Entries after “also recorded” stand apart in the source; their conditions may differ. Ends that are not written are not given here.
What was measured:
histone H4 on HUVEC = experiment: Cytotoxic assay: suppression of histone cytotoxicity on HUVEC; type: cell-based, human
Procedure: (§1) Normal human umbilical vein endothelial cells (HUVECs) were cultured in EGM2 medium (Clonetics). The cells after culture were washed with PBS, added with Opti-MEM medium containing an product of incubation of activated protein C (APC), PTX3, C reactive protein (CRP) or Serum amyloid P component (SAP) with histone for 1 hr, and the cells were further cultured for 1 hr. Propidium iodide (PI) was added to the medium after culture at a final concentration of 10 μg/mL, and the cells were stained for 10 min. The cells were washed with PBS, detached and analyzed by flow cytometry.
Using each recombinant histone instead of Calf Thymus Histones, a suppressive effect of full-length PTX3 or the N-terminal domain of PTX3 on histone cytotoxicity was studied in the same manner.
Lastly, capacity of suppressing the cytotoxic activity of histone was confirmed. Since this experiment requires a certain amount of protein and an endotoxin-elimination as treatment, a protein was expressed and purified at a 500 mL culture scale, and subjected to an endotoxin-elimination treatment (FIG. 18). In the case of PTX3 N-terminal domain, about 10 mg was obtained at a 500 mL culture scale, and a loss by the endotoxin-elimination treatment was scarcely observed. […] A capacity of fragment proteins obtained at a 500 mL scale on HUVEC to suppress histone cytotoxicity was studied. […]

[1] = tested on: Calf Thymus Histones on HUVEC; experiment: as above; type: cell-based, human
Procedure: After culturing for 1 hr in a medium concurrently containing 100 μg/mL Calf Thymus Histones and APC (200 nM), PTX3 (40 μg/mL), CRP (40 μg/mL) or SAP (40 μg/mL), the level of toxic activity was measured by FACS.
as §1
The histone cytotoxicity on HUVEC was evaluated by propidium iodide (PI) staining.
Lastly, capacity of suppressing the cytotoxic activity of histone was confirmed. Since this experiment requires a certain amount of protein and an endotoxin-elimination as treatment, a protein was expressed and purified at a 500 mL culture scale, and subjected to an endotoxin-elimination treatment (FIG. 18). In the case of PTX3 N-terminal domain, about 10 mg was obtained at a 500 mL culture scale, and a loss by the endotoxin-elimination treatment was scarcely observed. […] A capacity of fragment proteins obtained at a 500 mL scale on HUVEC to suppress histone cytotoxicity was studied. […] In consideration of the experiments relating to the binding and aggregation, all fragments were considered to possibly have a certain level of suppressive capacity.

Calf Thymus Histones = experiment: Aggregation with histone, absorbance at 310 nm; type: binding; settings: mixture with Calf Thymus Histones
Procedure: The lower left figure and the lower right figure show the measurement results of absorbance at 310 nm of a mixture of a wild-type or oligomer formation capacity-deficient mutant of PTX3 N-terminal domain having each concentration and 0.1 mg/mL Calf Thymus Histones at 1:1 vol.
The aggregation activity of PTX3 and other pentraxins to histone was evaluated. Calf Thymus Histones (50 μg/mL) were mixed with a PTX3 fragment or the other pentraxin at each concentration, and the absorbance at the wavelength of 310 nm was measured. Before mixing, samples were dialyzed against 4 mM CaCl2-containing TBS.

Row | Substance | capacity to suppress cytotoxicity of recombinant histone H4 on HUVEC (histone H4 on HUVEC) | capacity to suppress cytotoxicity of bovine thymus-derived histone on HUVEC [1] | suppression of toxic activity of Calf Thymus Histones on HUVEC ([1]; 100 μg/mL Calf Thymus Histones, 40 μg/mL protein, 1 hr, PI staining, FACS) | aggregation with Calf Thymus Histones, absorbance at 310 nm (Calf Thymus Histones)
1 | PTXN18: E. coli-expressed fragment of about 50 amino acids of PTX3 N-terminal domain with His-tag and TEV sequence, probably amino acids 18-67 (ENLYFQGENSDDYDLMYVNLDNEIDNGLHPTEDPTPCDCGQEHSEWDKLFIMLENSQ; not fully specified; cysteine pairing not given here) | almost equivalent to that of the PTX3 N-terminal domain | almost equivalent to that of the PTX3 N-terminal domain | – | –
2 | SAP: Serum amyloid P component, short pentraxin used as comparator [reference compound] | – | – | do not have such suppressive effect | no aggregation capacity; also recorded: scarcely showed an aggregation activity

Reference: patent publication US20150299277A1, “AGENT FOR TREATING OR PREVENTING SYSTEMIC INFLAMMATORY RESPONSE SYNDROME” (THE UNIVERSITY OF TOKYO, priority 2012, published 2015)
